Among the data in US20240228660A1 (IP2IPO INNOVATIONS, published 2024) are Kd, koff and kon values, retold here.

Where two headings read alike, the source gives them in different places.

Assay [1] concerns the target T1, human native VWF (human, UniProt P04275 764-2813).
T1 construct: Multimeric glycoprotein; also called native VWF protein; native VWF (305 kDa)
The experiment in a line: SPR, Biacore 8K, antibody captured on Protein A, native VWF as analyte (4.4-50 nM), single-cycle kinetics, 1:1 fit; replicate 1. A general note: In SPR one partner is held on a chip, and binding of the other changes the refractive index at the surface.
Procedure: (§1) The surface plasmon resonance (SPR) experiments were performed using a Biacore 8K (Cytiva) equipped with a research grade Protein A series S sensor chip. […] Flow cell 1 was left blank to serve as a reference surface. […] The complex was allowed to associate and dissociate for 120 seconds and 7200 seconds respectively. The surfaces were regenerated with 30 see injections of 10 mM glycine-HCl pH1.5.
(§2) Data were collected at a rate of 10 Hz. The data were fit to a simple 1:1 interaction model using the global data analysis option available within the Biacore Insight Evaluation software version 3.0.12.15655.

Assay [2] addresses T1, human native VWF. In words: SPR, Biacore 8K, antibody captured on Protein A, native VWF as analyte (4.4-50 nM), single-cycle kinetics, 1:1 fit; replicate 2.
Procedure: as §1, §2
For assay [3], the target named is T2, human full-length VWF (human, UniProt P04275 764-2813). The experiment in a line: SPR, Biacore T200, antibody captured on Protein A, full-length VWF as analyte, single-cycle kinetics.
Assay [4] deals with T2, human full-length VWF. The experiment in a line: SPR Biacore T200, antibody captured on Protein A chip, full-length VWF as analyte, single-cycle kinetics.
Procedure: (§3) Antibodies were captured on Protein A sensor chip. The system was purged using running buffer (10 mM HEPES pH 7.4, 300 mM NaCl, 3 mM EDTA, 0.05% P20) and a series S Protein A chip was docked in the Biacore T200. The surface was conditioned with 10 mM glycine-HCl pH 1.5 regeneration solution (3 injections). Each antibody was diluted to ˜0.8 μg/ml in running buffer to capture ˜350 RU on flow cells 2, 3 and 4 (flow cell 1 used as in-line reference cell). Single-cycle kinetic analysis of human full-length VWF binding to antibodies was performed using the following parameters:
Assay [5] concerns the target T2, human full-length VWF. In words: SPR, Biacore T200, antibody captured on Protein A, full-length VWF as analyte, single-cycle kinetics. The source holds these as a separate data set.
The target of assay [6] is T2, human full-length VWF. The description is as above. This is another data set of the same source.
Procedure: as §3
The target in assay [7] is T1, human native VWF. The experiment in a line: SPR, Biacore 8K, antibody captured on Protein A, native VWF as analyte (4.4-50 nM), single-cycle kinetics, 1:1 fit; replicate 3.
Procedure: as §1, §2

B1: 1-A2 (antibody, human IgG1, V domains shown)
VH: QSVEESGGRLVPPGTPLTLTCTVSGIDLTSNAMNWVRQAPGKGLEWIGGIYGHDTSYYAAWAKGRFTISRTSTTVDLKMTRPTTDDTATYFCARGFIYFDIWGTGTLVTISS
VL: AIEMTQTPPSLSASVGETVRIRCLASEDIYSGISWYQQKPGKPPTLLIYGASNLESGVPPRFSGSGSGTDYTLTIGGVQAEDAATYYCLGGHSHSTTDLTFGAGTKVEIK
notes: Rabbit-derived variable domains cloned into a human IgG1 expression vector and expressed as monoclonal antibody; also called clone 1-A2; antibody 1-A2
The term Kd denotes a measure of binding affinity in units of concentration. A higher Kd goes with lower affinity. Consider B1, for which the values for the Kd with human native VWF [1], in the assay with human native VWF [2] and with human full-length VWF [3] were 0.164 nM, 0.527 nM and 0.00802 nM, respectively.

B2: 4-H3 (antibody, human IgG1, V domains shown)
VH: QSLEESGGRLVPPGTPLTLTCTVSGIDLTSNAMNWVRQAPGKGLEWIGGIYGHDTSYYAAWAKGRFTISRTSTTVDLKMTRPTTDDTATYFCARGFIYFDIWGTGTLVTISS
VL: AYDMTQTPPSLSASVGETVRIRCLASEDIASGISWYQQKPGKPPTLLIYGASNLESGVPPRFSGSGSGTDYTLTIGGVQAEDAATYYCLGGYSFSSNGLTFGAGTKVEIK
notes: Rabbit-derived variable domains expressed as human IgG1; also called clone 4-H3
Regarding B2, the Kd with human native VWF [1] amounted to 0.123 nM; in the assay with human native VWF [2], 0.154 nM; in the assay with human full-length VWF [3] it was 0.0153 nM.

B3: 1-D5_H0_L1 (antibody, human IgG1, kappa, V domains shown)
VH: QVQLVESGGGVVQPGRSLRLSCAASGFTFSNYIMGWVRQAPGKGLEWVAIISTGGSTYYASWAKGRFTISRDNSKNTLYLQMNSLRAEDTAVYYCARGGSSAGAGFNIWGQGTLVTVSS
VL: DIQMTQSPSSLSASVGDRVTITCQASQSINSGLAWYQQKPGKAPKRLIYKASTLASGVPSRFSGSGSGTDFTLTISSLQPEDFATYYCQSYHYISANGATFGGGTKVEIKT
notes: humanised, human IgG1 kappa
One may read the koff as the rate constant with which the complex falls apart. A lower koff goes with slow dissociation. The kon is the second-order rate constant of association. The low end stands for slower complex formation, the high end for faster complex formation. As to B3, in the assay with human full-length VWF [4], the Kd is under 1 nM. Besides, in the assay with human full-length VWF [5], the Kd amounted to 0.00177 nM, the koff came out at 2.99e-07 s⁻¹ and the kon is 169000 M⁻¹ s⁻¹.

B4: 1-D5_H1_L0 (antibody, human IgG1, kappa, V domains shown)
VH: QVQLVESGGGVVQPGRSLRLSCAASGFSLNNYIMGWVRQAPGKGLEWVAIISTGGSTYYASWAKGRFTISRDNSKNTLYLQMNSLRAEDTAVYYCARGGSSAGAGFNIWGQGTLVTVSS
VL: DIQMTQSPSSLSASVGDRVTITCQASQSINSGLAWYQQKPGKAPKLLIYKASTLASGVPSRFSGSGSGTDFTLTISSLQPEDFATYYCQSYHYISANGATFGGGTKVEIKT
notes: humanised, human IgG1 kappa
B4 came in with a Kd with human full-length VWF [4] of under 1 nM. In the assay with human full-length VWF [5], the Kd is 0.0016 nM, the koff was determined as 1.25e-07 s⁻¹ and the kon is 77900 M⁻¹ s⁻¹.

B5: 1-G5_H2_L1 (antibody, human IgG1, kappa)
heavy: not shown
light: DPQMTQSPSSLSASVGDRVTITCQASQSVYNNNYLSWYQQKPGKAPKLLIYDASTLASGVPSRFSGSGSGTDFTLTISSLQPEDFATYYCQGSYYSGGWDTAFGGGTKVEIKTVAAPSVFIFPPSDEQLKSGTASVVCLLNNFYPREAKVQWKVDNALQSGNSQESVTEQDSKDSTYSLSSTLTLSKADYEKHKVYACEVTHQGLSSPVTKSFNRGEC
notes: humanised, human IgG1 kappa
As for B5, in the assay with human full-length VWF [6], binding was characterised by a dissociation constant (Kd) of 0.000174 nM, the koff came out at 2.25e-08 s⁻¹ and the kon is 129000 M⁻¹ s⁻¹. Further, the Kd in the assay with human full-length VWF [4] is under 1 nM.

B6: 1-G5_H1_L1 (antibody, human IgG1, kappa)
heavy: not shown
light: DPQMTQSPSSLSASVGDRVTITCQASQSVYNNNYLSWYQQKPGKAPKLLIYDASTLASGVPSRFSGSGSGTDFTLTISSLQPEDFATYYCQGSYYSGGWDTAFGGGTKVEIKTVAAPSVFIFPPSDEQLKSGTASVVCLLNNFYPREAKVQWKVDNALQSGNSQESVTEQDSKDSTYSLSSTLTLSKADYEKHKVYACEVTHQGLSSPVTKSFNRGEC
notes: humanised, human IgG1 kappa
On to B6, for which, in the assay with human full-length VWF [6], binding was characterised by a dissociation constant (Kd) of 0.0148 nM, the koff worked out at 6.03e-07 s⁻¹ and the kon came out at 40700 M⁻¹ s⁻¹. For the same molecule, the Kd in the assay with human full-length VWF [4] was under 1 nM.

B7: 1-G5_H0_L0 (antibody, human IgG1, kappa)
heavy: not shown
light: DIQMTQSPSSLSASVGDRVTITCQASQSVYNNNYLSWYQQKPGKAPKLLIYDASTLASGVPSRFSGSGSGTDFTLTISSLQPEDFATYYCQGSYYSGGWDTAFGGGTKVEIKTVAAPSVFIFPPSDEQLKSGTASVVCLLNNFYPREAKVQWKVDNALQSGNSQESVTEQDSKDSTYSLSSTLTLSKADYEKHKVYACEVTHQGLSSPVTKSFNRGEC
notes: humanised, human IgG1 kappa
B7: in the assay with human full-length VWF [6], the Kd stood at 0.0011 nM, the off-rate constant (koff) came out at 9.05e-08 s⁻¹ and the kon was 82400 M⁻¹ s⁻¹. This molecule showed a Kd with human full-length VWF [4] of under 1 nM.

B8: 1-G5_H2_L0 (antibody, human IgG1, kappa)
heavy: not shown
light: DIQMTQSPSSLSASVGDRVTITCQASQSVYNNNYLSWYQQKPGKAPKLLIYDASTLASGVPSRFSGSGSGTDFTLTISSLQPEDFATYYCQGSYYSGGWDTAFGGGTKVEIKTVAAPSVFIFPPSDEQLKSGTASVVCLLNNFYPREAKVQWKVDNALQSGNSQESVTEQDSKDSTYSLSSTLTLSKADYEKHKVYACEVTHQGLSSPVTKSFNRGEC
notes: humanised, human IgG1 kappa
On to B8, for which, in the assay with human full-length VWF [6], the Kd amounted to 0.013 nM, the koff is 3.9e-07 s⁻¹ and the kon is 29900 M⁻¹ s⁻¹. The molecule further had a Kd with human full-length VWF [4] of under 1 nM.

B9: 1-G5_H0_L1 (antibody, human IgG1, kappa)
heavy: not shown
light: DPQMTQSPSSLSASVGDRVTITCQASQSVYNNNYLSWYQQKPGKAPKLLIYDASTLASGVPSRFSGSGSGTDFTLTISSLQPEDFATYYCQGSYYSGGWDTAFGGGTKVEIKTVAAPSVFIFPPSDEQLKSGTASVVCLLNNFYPREAKVQWKVDNALQSGNSQESVTEQDSKDSTYSLSSTLTLSKADYEKHKVYACEVTHQGLSSPVTKSFNRGEC
notes: humanised, human IgG1 kappa
In the assay with human full-length VWF [6], B9 came in with a Kd of 0.0129 nM, a koff of 1.02e-06 s⁻¹ and a kon of 79000 M⁻¹ s⁻¹. This molecule also came in with a Kd in the assay with human full-length VWF [4] of under 1 nM.

B10: 3-H9_H2_L0 (antibody, human IgG1, kappa, V domains shown)
VH: QQLVESGGGVVQPGRSLRLSCAASGFSLSNYDMSWVRQAPGKGLEWIGSIHAIGITYYANWAEGRFTISRDKNTVYLQMNSLRAEDTATYFCARGLVDLNMWGQGTLVTVSS
VL: DIQMTQSPSSLSASVGDRVTITCQSSQSVYSNNLLSWYQQKPGKAPKLLIYDASTLESGVPSRFSGSGSGTDFTLTISSLQPEDFATYYCQGSYYSSGWYNTFGGGTKVEIKT
notes: humanised, human IgG1 kappa
In the assay with human full-length VWF [6], B10 displayed a Kd of 0.0112 nM, a koff of 8.74e-07 s⁻¹ and a kon of 78100 M⁻¹ s⁻¹. The molecule also returned a Kd with human full-length VWF [4] of under 1 nM.

B11: 3-H9_H1_L0 (antibody, human IgG1, kappa, V domains shown)
VH: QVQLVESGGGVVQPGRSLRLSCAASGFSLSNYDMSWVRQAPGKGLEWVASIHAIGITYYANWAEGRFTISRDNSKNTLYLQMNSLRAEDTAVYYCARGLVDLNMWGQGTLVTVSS
VL: DIQMTQSPSSLSASVGDRVTITCQSSQSVYSNNLLSWYQQKPGKAPKLLIYDASTLESGVPSRFSGSGSGTDFTLTISSLQPEDFATYYCQGSYYSSGWYNTFGGGTKVEIKT
notes: humanised, human IgG1 kappa
In the assay with human full-length VWF [6], B11 showed a Kd of 0.0156 nM, a koff of 2.84e-07 s⁻¹ and a kon of 18200 M⁻¹ s⁻¹. In the assay with human full-length VWF [4], this molecule had a Kd of under 1 nM.

B12: 3-H9_H0_L0 (antibody, human IgG1, kappa, V domains shown)
VH: QVQLVESGGGVVQPGRSLRLSCAASGFTFSNYDMSWVRQAPGKGLEWVASIHAIGITYYANWAEGRFTISRDNSKNTLYLQMNSLRAEDTAVYYCARGLVDLNMWGQGTLVTVSS
VL: DIQMTQSPSSLSASVGDRVTITCQSSQSVYSNNLLSWYQQKPGKAPKLLIYDASTLESGVPSRFSGSGSGTDFTLTISSLQPEDFATYYCQGSYYSSGWYNTFGGGTKVEIKT
notes: humanised, human IgG1 kappa
In the assay with human full-length VWF [6], B12 returned a Kd of 0.00105 nM, a koff of 8.46e-08 s⁻¹ and a kon of 80900 M⁻¹ s⁻¹. Besides, in the assay with human full-length VWF [4], the Kd is under 1 nM.

B13: 1-G5 (antibody, human IgG1, V domains shown)
VH: QSLEESGGRLVTPGTPLTLTCSVSGFSLSSYDMTWVRQAPGKGLEWIGSIHATGITFYANWAKGRFTTSKTSTTVDLKMTSLTTEDTATYFCARGLVDLNMWGPGTLVTVSS
VL: DPVMTQTASSVSAAVGGTVTINCQASQSVYNNNYLSWYQQKPGQPPKLLIYDASTLASGVPSRFSGNGSGTQFTLTISGVQCDDAATYYCQGSYYSGGWDTAFGGGTKVVVK
notes: Rabbit-derived variable domains expressed as human IgG1; also called clone 1-G5
Consider B13, for which the Kd with human native VWF [1] was 0.0549 nM; with human full-length VWF [6] it was 0.0253 nM; with human native VWF [2] it was 0.079 nM; with human native VWF [7], 0.123 nM.
